A word on the Ki: it is the dissociation constant of the complex between target and ligand, obtained from inhibition or displacement.

A short description of test [1]: Fluorescence polarization equilibrium competition binding assay, unlabeled digoxin. As to the method:
(§1) Fluorescence polarization binding assays. Fluorescence polarization-based affinity measurements of designs and their evolved variants were performed as described^46 using Alexa488-conjugated DIG (DIG-PEG3-Alexa488). Fluorescence anisotropy (r) was measured in 96-well plate format on a SpectraMax M5e microplate reader (Molecular Devices) with λex=485 nM and λem=538 nM using a 515 nm emission cutoff filter. Fluorescence polarization equilibrium competition binding assays were used to determine the binding affinities of DIG10.3 and its variants for unlabeled digoxigenin, digitoxigenin, progesterone, β-estradiol, and digoxin. The inhibition constant for each protein-ligand interaction, Ki, was calculated from the measured total unlabeled ligand producing 50% binding signal inhibition (I50) and the Kd of the protein-label interaction according to a model accounting for receptor-depletion conditions^46.
Fluorescence polarization equilibrium competition binding assays. Fluorescence polarization equilibrium competition binding assays were used to determine the binding affinities of DIG10.3 and its variants for unlabeled digoxigenin, digitoxigenin, progesterone, β-estradiol, and digoxin. […] Unlabeled stock solutions of digoxigenin, digitoxigenin, progesterone, and β-estradiol were prepared in methanol. Unlabeled stock solutions of digoxin were prepared in DMSO. […] For each ligand concentration, a negative control sample containing only DIG-PEG3-Alexa488 and the appropriate dilution of a corresponding methanol-only control solution in PBS was measured.
Fluorescence anisotropy (r) was measured as noted above. […] The concentration of total unlabeled ligand producing 50% binding signal inhibition (I50) was determined by fitting a plot of the anisotropy averaged over a period of 30 min to 3 hr after reaction initiation versus unlabeled ligand concentration as described previously^47. […] In these cases, data were fit by fixing the anisotropy at infinite steroid concentration to a value measured for other steroids for which this value could be determined experimentally. […]

The nature of test [2]: Fluorescence polarization equilibrium competition binding assay, unlabeled β-estradiol. Conditions: steroid β-estradiol; PBS pH 7.4, 25° C.; read-out: Inhibition Constant (Ki). The protocol: (§2) Proteins were expressed in E. coli Rosetta 2 (DE3) cells with a C-terminal TEV protease cleavable His6 tag for biochemical assays. For crystallographic analysis of DIG10 variants, a 12-amino acid structurally disordered C-terminus deriving from the scaffold protein 1z1s was replaced directly with a His6 tag. Binding affinities were determined by equilibrium fluorescence polarization^30 on a SpectraMax M5e microplate reader by monitoring the anisotropy of DIG-conjugated Alexa488 as a function of protein concentration. Equilibrium fluorescence polarization competition assays were performed by examining the effect of increasing concentrations of unlabeled DIG, digitoxigenin, progesterone, and β-estradiol on the anisotropy of designed protein-DIG-conjugated Alexa488 complex.
as §1, with “The inhibition constant for each protein-ligand interaction, Ki, was calculated from the measured total unlabeled ligand producing 50% binding signal inhibition (I50) and the Kd of the protein-label interaction according to a model accounting for receptor-depletion conditions^46.” left out
(§3) Fluorescence polarization equilibrium competition binding assays. Fluorescence polarization equilibrium competition binding assays were used to determine the binding affinities of DIG10.3 and its variants for unlabeled digoxigenin, digitoxigenin, progesterone, β-estradiol, and digoxin. […] For each ligand concentration, a negative control sample containing only DIG-PEG3-Alexa488 and the appropriate dilution of a corresponding methanol-only control solution in PBS was measured.
(§4) Fluorescence anisotropy (r) was measured as noted above. […]
On the technique in general: Polarisation of emitted light reports the rotation of a fluorescent probe.

A short description of test [3]: Fluorescence polarization equilibrium competition binding assay, unlabeled digoxigenin. The following applies: for Ki: steroid Digoxigenin (DIG), PBS pH 7.4, 25° C., read-out: Inhibition Constant (Ki). The protocol: as §2, §1
Fluorescence polarization equilibrium competition binding assays. Fluorescence polarization equilibrium competition binding assays were used to determine the binding affinities of DIG10.3 and its variants for unlabeled digoxigenin, digitoxigenin, progesterone, β-estradiol, and digoxin. […] Unlabeled stock solutions of digoxigenin, digitoxigenin, progesterone, and β-estradiol were prepared in methanol. Unlabeled stock solutions of digoxin were prepared in DMSO. Ligand stock solutions were 10 mM for DIG, digitoxigenin, and digoxin, and 1 mM for progesterone and β-estradiol. For each ligand concentration, a negative control sample containing only DIG-PEG3-Alexa488 and the appropriate dilution of a corresponding methanol-only control solution in PBS was measured.
Fluorescence anisotropy (r) was measured as noted above. In all experiments, PBS (pH 7.4) was used as the buffer system and the temperature was 25° C. The concentration of total unlabeled ligand producing 50% binding signal inhibition (I50) was determined by fitting a plot of the anisotropy averaged over a period of 30 min to 3 hr after reaction initiation versus unlabeled ligand concentration as described previously^47. For some experiments, limiting steroid concentrations made it impossible to collect data in the regime of complete inhibition. In these cases, data were fit by fixing the anisotropy at infinite steroid concentration to a value measured for other steroids for which this value could be determined experimentally. […]
The inhibition constant for each protein-ligand interaction, Ki, was calculated from the measured IC50 and the Kd of the protein-label interaction according to a model accounting for receptor-depletion conditions^47. […]

A short description of test [4]: Fluorescence polarization equilibrium competition binding assay, unlabeled digitoxigenin. Conditions: steroid digitoxigenin; PBS pH 7.4, 25° C.; read-out: Inhibition Constant (Ki). As to the method: as §2
as §1, with “The inhibition constant for each protein-ligand interaction, Ki, was calculated from the measured total unlabeled ligand producing 50% binding signal inhibition (I50) and the Kd of the protein-label interaction according to a model accounting for receptor-depletion conditions^46.” left out
as §3, §4

Test [5] can be described thus: Fluorescence polarization equilibrium competition binding assay, unlabeled progesterone. The following applies: steroid progesterone; PBS pH 7.4, 25° C.; read-out: Inhibition Constant (Ki). The protocol:
as §2
as §1, with “The inhibition constant for each protein-ligand interaction, Ki, was calculated from the measured total unlabeled ligand producing 50% binding signal inhibition (I50) and the Kd of the protein-label interaction according to a model accounting for receptor-depletion conditions^46.” left out
as §3, §4

Where a chain is given by its changes, count along the chain named. Names and notes keep the numbering of the source.

B1: DIG10.3: DIG10.2 variant with C23S, H90L, V92A, A99Y, S103A, L105W; SEQ ID NO: 15 (protein)
chain: MNAKEIVVHALRLLENGDARGWSDLFHPEGVLEYPYPPPGYKTRFEGRETIWAHMRLFPEYMTIRFTDVQFYETADPDLAIGEFHGDGVLTASGGKLAYDYIAVWRTRDGQILLYRLFFNPLRVLEPLGGVEAAAKIVQGA
modifications: (130)..(141) amino acids are optionally absent
Consider B1, for which the “affinity for digoxin (in words)” value in test [1] is “picomolar affinity”. In test [1] (competition FP), the “affinity for digoxin compared with DIG” value was “slightly higher than that for DIG”. The Ki in test [1] (steroid digoxin, PBS pH 7.4, 25° C., read-out: Inhibition Constant (Ki)) turned out to be 0.223 ± 0.105 nM; in test [2], 2100 ± 800 nM; in test [3] it was 0.653 ± 0.262 nM; in test [4], 19 ± 7 nM; in test [5], 243 ± 91 nM. Further, the “DIG binding affinity relative to widely used anti-DIG antibodies” value in test [3] was “within a factor of two”. Besides, the “affinity for DIG (in words)” value in test [3] is “picomolar affinity”.

B2: DIG10.3 Y101F: DIG10.3 point mutant, SEQ ID NO: 19 (protein)
chain: B1 chain with Y101F
modifications: (130)..(141) amino acids are optionally absent
On to B2, for which the inhibition constant Ki in test [2] was 1700 ± 400 nM; in test [3], 39 ± 8 nM; in test [4], below 3.8 nM; in test [5], 30 ± 9 nM.

B3: DIG10.3 Y34F/Y99F/Y101F: DIG10.3 triple mutant, SEQ ID NO: 22 (protein)
chain: B1 chain with Y34F, Y99F, Y101F
modifications: (130)..(141) amino acids are optionally absent
As to B3, the inhibition constant (Ki) was 1600 ± 600 nM in test [2], 580 ± 229 nM in test [3], below 16 nM in test [4] and below 17 nM in test [5].

For the origin of these results see patent US9840539B2, “High affinity digoxigenin binding proteins” (UNIVERSITY OF WASHINGTON THROUGH ITS CENTER FOR …, priority 2013, dated 2017).
